Laboratory results: patent US20240383984A1 (Genentech, published 2024)
One block for each binder: values may come before it.

Assays:
Test in all cases: FACS, SVT2 cells
[1] = target: T1, Human E11-TM-ICD (E11 domain, transmembrane domain, and cytoplasmic domains of human FcRH5, on SVT2 cells) (human, UniProt Q96RD9 745-977)
T1 construct: On cells
T1 sequence: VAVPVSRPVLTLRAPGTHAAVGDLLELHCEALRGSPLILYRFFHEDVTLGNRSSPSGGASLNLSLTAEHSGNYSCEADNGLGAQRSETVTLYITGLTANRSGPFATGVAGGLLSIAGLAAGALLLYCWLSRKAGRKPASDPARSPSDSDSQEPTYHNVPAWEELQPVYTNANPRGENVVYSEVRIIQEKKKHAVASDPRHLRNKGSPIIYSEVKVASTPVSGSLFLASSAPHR

[2] = target: T2, human FcRH1 (full-length, on SVT2 cells) (human, UniProt Q96LA6 17-429)
T2 construct: whole, on cells; also called SVT2-FcRH1
T2 sequence (looked up): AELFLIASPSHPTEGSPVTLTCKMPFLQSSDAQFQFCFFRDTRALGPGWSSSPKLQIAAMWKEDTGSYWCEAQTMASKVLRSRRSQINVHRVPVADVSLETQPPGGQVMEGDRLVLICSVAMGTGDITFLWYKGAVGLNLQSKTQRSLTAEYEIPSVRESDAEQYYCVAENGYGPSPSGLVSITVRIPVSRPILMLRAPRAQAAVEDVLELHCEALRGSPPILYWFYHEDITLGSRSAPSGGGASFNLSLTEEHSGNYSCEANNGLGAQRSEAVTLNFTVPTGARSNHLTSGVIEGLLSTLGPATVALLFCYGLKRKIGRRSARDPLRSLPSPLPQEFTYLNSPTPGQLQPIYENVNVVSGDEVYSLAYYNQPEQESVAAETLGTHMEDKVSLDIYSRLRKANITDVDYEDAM

[3] = target: T3, human FcRH3 (full-length, on SVT2 cells) (human, UniProt Q96P31 18-734)
T3 construct: whole, on cells; also called SVT2-FcRH3
T3 sequence (looked up): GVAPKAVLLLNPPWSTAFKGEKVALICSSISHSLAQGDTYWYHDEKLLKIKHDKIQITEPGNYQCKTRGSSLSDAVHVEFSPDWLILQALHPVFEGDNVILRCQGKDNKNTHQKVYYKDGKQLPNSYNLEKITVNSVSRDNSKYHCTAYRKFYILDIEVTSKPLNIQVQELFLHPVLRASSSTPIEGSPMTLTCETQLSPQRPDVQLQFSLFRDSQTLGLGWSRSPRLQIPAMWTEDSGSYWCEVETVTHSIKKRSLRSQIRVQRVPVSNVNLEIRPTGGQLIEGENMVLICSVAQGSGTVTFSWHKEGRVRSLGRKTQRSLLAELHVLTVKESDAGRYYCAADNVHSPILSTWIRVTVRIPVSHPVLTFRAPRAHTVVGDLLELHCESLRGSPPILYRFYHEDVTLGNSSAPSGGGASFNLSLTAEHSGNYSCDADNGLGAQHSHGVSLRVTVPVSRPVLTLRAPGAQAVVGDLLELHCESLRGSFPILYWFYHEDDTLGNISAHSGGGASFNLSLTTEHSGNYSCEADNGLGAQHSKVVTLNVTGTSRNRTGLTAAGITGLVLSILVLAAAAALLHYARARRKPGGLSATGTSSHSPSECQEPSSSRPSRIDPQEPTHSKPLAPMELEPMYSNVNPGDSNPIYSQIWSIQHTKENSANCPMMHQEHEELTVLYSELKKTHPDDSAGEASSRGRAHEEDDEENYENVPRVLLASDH

[4] = target: T4, human FcRH4 (full-length, on SVT2 cells) (human, UniProt Q96PJ5 20-515)
T4 construct: whole, on cells; also called SVT2-FcRH4
T4 sequence (looked up): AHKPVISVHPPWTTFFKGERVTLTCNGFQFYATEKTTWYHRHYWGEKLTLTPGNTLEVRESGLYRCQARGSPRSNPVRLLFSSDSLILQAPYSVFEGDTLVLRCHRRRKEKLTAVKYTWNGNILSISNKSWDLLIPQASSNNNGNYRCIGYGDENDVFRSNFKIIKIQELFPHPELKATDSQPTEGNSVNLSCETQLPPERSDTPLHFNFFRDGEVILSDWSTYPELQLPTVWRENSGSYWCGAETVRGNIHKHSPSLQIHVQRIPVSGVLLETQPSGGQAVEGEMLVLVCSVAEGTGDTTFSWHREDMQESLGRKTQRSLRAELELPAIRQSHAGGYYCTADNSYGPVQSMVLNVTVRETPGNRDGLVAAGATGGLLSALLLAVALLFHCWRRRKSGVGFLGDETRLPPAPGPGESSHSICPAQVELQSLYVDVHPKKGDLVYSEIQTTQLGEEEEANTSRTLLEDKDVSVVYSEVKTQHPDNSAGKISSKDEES

- binding result [1]: binds
- binding result [2]: no binding
- binding result [3]: no binding
- binding result [4]: no binding
B1: 17B1 (antibody, mouse IgG2a, V domains shown)
VH: QVQLQQSGPELVRPGVSVKISCKGSGYTFTHYAMHWVKQSHTKSLEWIGMISSSSGNTNFNQKFMDKATMTVDKSSTTAYLELARLTFGDSAIYYCARWSYYALFDYWGQGTTVTVSS
VL: ENVLTQSPAIMSASPGEKVTMTCSADSSVDYIHWYQQKSNTSPKLWIYDTSKLASGVPGRFSGSGSGNSYSLTISSMEAEDFATYYCFQGSGYPLTFGSGTKLELK
notes: mouse mAb, Campaign C; recombinant murine IgG2a for SPR

- binding result [1]: binds
- binding result [2]: no binding
- binding result [3]: no binding
- binding result [4]: no binding
B2: 15G8 (antibody, mouse IgG2a, V domains shown)
VH: EVQLQQSGPELVKPGASVKMSCKASGYTFTNYVIHWMKQKPGQGLEWIGYISPYNDYTKYNEKFEGKATLTSDKSSNTAYMELSSLTSEDSAVYYCARRDYYGSSDYWGQGTTLTVSS
VL: QIVLTQSPAIMSASPGEKVTMTCSASSSVDYMHWYQQKSGTSPKKWIYDTSKLASGVPARFSGSGSGTSYSLTIGSMEAEDAATYYCQQWSSNPPTFGGGTKLEIK
notes: mouse mAb, Campaign C; recombinant murine IgG2a for SPR; also called mAb 15G8
